Measured values as given in the supplement of paper PMC9732359.
± gives the uncertainty stated by the source.

Experiment: protein stability index of a GFP-peptide fusion (yeast GPS) (PSI 1-4); higher = more stable; sorted into four equal gates, so the index is relative within each strain
Procedure, shortened: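 Peptides tiling yeast proteins in 17-residue segments were fused downstream of GFP, with Cherry expressed from the same plasmid. As a pooled library in yeast, mid-log cultures grown in leucine-free medium were sorted into four equal gates by GFP/Cherry fluorescence ratio. Gate plasmids were PCR-amplified and Illumina-sequenced, and barcodes linked reads to strains. Each peptide received a protein stability index equal to the sum of each gate's read frequency times its gate number.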

Sequence	protein stability index (doa10∆)	protein stability index (pdr5∆)	protein stability index (san1∆)	protein stability index (ubr1∆)
FAALSDSYGQGSMTKTW [SSN2]	3.17 ± 0.094	3.34 ± 0.088	3.23 ± 0.1	3.2 ± 0.063
KELFEKTFDYVSDHLDA [SMC1]	3.35 ± 0.085	2.87 ± 0.068	2.9 ± 0.077	3 ± 0.049
NTSLPPSILEDSLENNE [FAS1]	2.89 ± 0.11	2.98 ± 0.11	3.11 ± 0.095	2.81 ± 0.079
FDPSKDVLINELLDQVT [CDC53]	2.74 ± 0.066	2.15 ± 0.047	2.24 ± 0.087	2.5 ± 0.054
NILKILSSLILKIFQEQ [SRB8]	2.17 ± 0.047	1.99 ± 0.05	2.48 ± 0.1	2.02 ± 0.037
SDAKEQHQSLSRSSSKN [ESC2]	2.85 ± 0.14	3.21 ± 0.14	3.26 ± 0.074	3.27 ± 0.11
TAPSSERRVLLSAPLSK [RPL26B]	1.86 ± 0.041	2.4 ± 0.044	2.66 ± 0.062	2.08 ± 0.044
SKSAFSFGSKPTGKEEG [YJL041W/NSP1]	3.26 ± 0.058	3.34 ± 0.052	3.36 ± 0.069	3.16 ± 0.067
IPDIGDLPDTEGLELLG [PRP8]	3.08 ± 0.14	3.15 ± 0.15	3.35 ± 0.063	3.29 ± 0.046
RYQHLEKITQISLLCKN [PCI8]	1.23 ± 0.066	1.5 ± 0.051	1.25 ± 0.11	1.22 ± 0.048
ALGIKVTNPKGRLALEA [RPL32]	–	3.37 ± 0.18	2.87 ± 0.23	3.36 ± 0.19
IQDTLRTGSQSPPSSSQ [MED7]	2.81 ± 0.044	2.91 ± 0.05	2.77 ± 0.043	2.89 ± 0.032
QSRRYNLRRHSDIVLDK [SIN4]	3.07 ± 0.05	3.21 ± 0.034	3.131 ± 0.028	3.14 ± 0.035
HLVSNELEQLSSEALEA [RPL10]	1.21 ± 0.053	1.39 ± 0.042	1.3 ± 0.14	1.39 ± 0.031
KDPSPEILVLYNVCDTS [SIN4]	2.8 ± 0.071	2.9 ± 0.06	2.82 ± 0.058	2.88 ± 0.12
RIKNEQSALSQIIRLFY [ISW2]	3.08 ± 0.1	3.09 ± 0.1	2.76 ± 0.076	3.06 ± 0.073
EREIMNDHSKSANPKKT [SWI3]	3.29 ± 0.077	3.3 ± 0.084	3.3 ± 0.16	3.31 ± 0.065
QTSLVRMFEKNVMLNIY [SKI6]	–	3.17 ± 0.11	3.29 ± 0.13	3.12 ± 0.076
GVRDINCVNDVLEFCKD [POP1]	2.93 ± 0.18	2.82 ± 0.18	2.36 ± 0.24	3.09 ± 0.26
